Laboratory results taken from publication PMC4854385, “The Caenorhabditis elegans Protein FIC-1 Is an AMPylase That Covalently Modifies Heat-Shock 70 Family Proteins, Translation Elongation Factors and Histones” (PLoS Genetics, 2016).
Where a chain is given by its changes, count along the chain named. Names and notes keep the numbering of the source.

B1: FIC-1_(134-508) E274G/I298D (domain or fragment, C. elegans, UniProt Q23544 134-508, looked up)
chain: DEKRENDPAKVKEAILAAKAAGRSRKDGNLERAMTIMEHAMALAPTNPQILIEMGQIREMHNELVEADQCYVKALAYDPGNSEALVLRARTTPLVSAIDRKMLRSVHDLRDEFNHLQHSTALRRMMRETYFLYVYHTVAIGGNTLSLGQTRAILESGMVIPGKSDREHNEVIGMDAALRFLNCSLLSKEHDEISIDDILEMHRRVLGNADPVEAGRIRTTQVYVGRFTPVSPEYVMEQLKDIVDWLNDESTLTIDPIERAAIAHYKLVLVHPFTDGNGRTARLLLNLIMMRSGFPPVILPVETRAEYYASLHVANLGDLRPFVRYVAKHSEASIQRYIGAMKTSSDNILNSGDSKLTPEESEVSEKIEAECRAGN
B2: FIC-1_(134-508) E274G (domain or fragment, C. elegans, UniProt Q23544 134-508, looked up)
chain: B1 chain with D165I
notes: C. elegans Fic protein FIC-1, residues 134-508, constitutively active mutant; transmembrane helix and membrane proximal domain excluded; Non-cleavable N-terminal 6x His tag; also called FIC-1 E274G; source: E. coli LOBSTR-RIL(DE3), purified (Ni-Sepharose, size-exclusion chromatography); not shown: His6, N-terminal, kept
B3: FIC-1_(134-508) (domain or fragment, C. elegans, UniProt Q23544 134-508, looked up)
chain: B1 chain with G141E, D165I
notes: C. elegans Fic protein FIC-1, residues 134-508; transmembrane helix and membrane proximal domain excluded; also called FIC-1 wild type; FIC-1 wildtype (wt); source: E. coli LOBSTR-RIL(DE3), purified (Ni-Sepharose, size-exclusion chromatography); not shown: His6, N-terminal, kept

Tests used:
[1] = molecular target: the molecule itself; experiment: cell-based or functional assay
[2] = molecular target: the molecule itself; experiment: crystal structure; hanging drop vapor diffusion, 18°C, 0.1 M MES pH 6.5, 1.1 M ammonium sulfate; two molecules in the asymmetric unit

Protein | self-AMPylation of FIC-1 E274G/I298D relative to FIC-1 E274G (in vitro AMPylation with α33P-ATP, autoradiography) [1] | target (histone H3) AMPylation by FIC-1 E274G/I298D relative to FIC-1 E274G (in vitro AMPylation with α33P-ATP, autoradiography) [1] | binding result [2]
B1 | 46% | 11% | 
B2 |  |  | binds
B3 |  |  | binds
